From US20240270846A1 (published 2024)
Positions count from the first letter of the chain named. Names and notes keep the numbering of the source.

B1: GLS3000 H27dY one-arm antibody (H chain CE115HA000) (antibody, human IgG1, kappa, L234A L235A, N297A, name in Kabat numbering)
heavy: QVQLVESGGGVVQPGRSLRLSCAASGFTFSNAWMHWVRQAPGKGLEWVAQIKAKSNNYATYYAESVKGRFTISRDDSKNSLYLQMNSLKTEDTAVYYCRYVHYGAYYGVDAWGQGTTVTVSSASTKGPSVFPLAPSSKSTSGGTAALGCLVKDYFPEPVTVSWNSGALTSGVHTFPAVLQSSGLYSLSSVVTVPSSSLGTQTYICNVNHKPSNTKVDKKVEPKSCDKTHTCPPCPAPEAAGGPSVFLFPPKPKDTLMISRTPEVTCVVVDVSHEDPEVKFNWYVDGVEVHNAKTKPREEQYASTYRVVSVLTVLHQDWLNGKEYKCKVSNKALPAPIEKTISKAKGQPREPQVYTLPPSRCELTKNQVSLSCAVKGFYPSDIAVEWESNGQPENNYKTTPPVLDSDGSFFLVSKLTVDKSRWQQGNVFSCSVMHEALHNHYTQKSLSLSPDYKDDDDK
chain: EPKSSDKTHTCPPCPAPELLGGPSVFLFPPKPKDTLMISRTPEVTCVVVDVSHEDPEVKFNWYVDGVEVHNAKTKPREEQYNSTYRVVSVLTVLHQDWLNGKEYKCKVSNKALPAPIEKTISKAKGQPREPQVCTLPPSRDELTKNQVSLWCLVKGFYPSDIAVEWESNGQPENNYKTTPPVLDSDGSFFLYSKLTVDKSRWQQGNVFSCSVMHEALHNRYTQKSLSLSP
light: DIVMTQSPLSLPVTPGEPASISCRSSQSLVYSNRNTYLHWYQQKPGQAPRLLIYKVSNRFSGVPDRFSGSGSGTDFTLKISRVEAEDVGVYYCGQGTQVPYTFGQGTKLEIKRTVAAPSVFIFPPSDEQLKSGTASVVCLLNNFYPREAKVQWKVDNALQSGNSQESVTEQDSKDSTYSLSSTLTLSKADYEKHKVYACEVTHQGLSSPVTKSFNRGEC
notes: one-arm antibody
B2: GLS3000 N28A one-arm antibody (H chain CE115HA000) (antibody, human IgG1, kappa, L234A L235A, N297A, name in Kabat numbering)
heavy: B1 heavy
chain: B1 chain
light: B1 light with Y31H, N33A
notes: one-arm antibody
B3: GLS3000 N28M one-arm antibody (H chain CE115HA000) (antibody, human IgG1, kappa, L234A L235A, N297A, name in Kabat numbering)
heavy: B1 heavy
chain: B1 chain
light: B1 light with Y31H, N33M
notes: one-arm antibody
B4: GLS3000 L27bW one-arm antibody (H chain CE115HA000) (antibody, human IgG1, kappa, L234A L235A, N297A, name in Kabat numbering)
heavy: B1 heavy
chain: B1 chain
light: B1 light with L29W, Y31H
notes: one-arm antibody
B5: GLS3000 N28G one-arm antibody (H chain CE115HA000) (antibody, human IgG1, kappa, L234A L235A, N297A, name in Kabat numbering)
heavy: B1 heavy
chain: B1 chain
light: B1 light with Y31H, N33G
notes: one-arm antibody
B6: GLS3000 K50A one-arm antibody (H chain CE115HA000) (antibody, human IgG1, kappa, L234A L235A, N297A, name in Kabat numbering)
heavy: B1 heavy
chain: B1 chain
light: B1 light with Y31H, K55A
notes: one-arm antibody
B7: GLS3000 K50D one-arm antibody (H chain CE115HA000) (antibody, human IgG1, kappa, L234A L235A, N297A, name in Kabat numbering)
heavy: B1 heavy
chain: B1 chain
light: B1 light with Y31H, K55D
notes: one-arm antibody
B8: GLS3000 L27bI one-arm antibody (H chain CE115HA000) (antibody, human IgG1, kappa, L234A L235A, N297A, name in Kabat numbering)
heavy: B1 heavy
chain: B1 chain
light: B1 light with L29I, Y31H
notes: one-arm antibody
B9: GLS3000 H34A one-arm antibody (H chain CE115HA000) (antibody, human IgG1, kappa, L234A L235A, N297A, name in Kabat numbering)
heavy: B1 heavy
chain: B1 chain
light: B1 light with Y31H, H39A
notes: one-arm antibody
B10: GLS3000 N28T one-arm antibody (H chain CE115HA000) (antibody, human IgG1, kappa, L234A L235A, N297A, name in Kabat numbering)
heavy: B1 heavy
chain: B1 chain
light: B1 light with Y31H, N33T
notes: one-arm antibody
B11: GLS3000 N28Q one-arm antibody (H chain CE115HA000) (antibody, human IgG1, kappa, L234A L235A, N297A, name in Kabat numbering)
heavy: B1 heavy
chain: B1 chain
light: B1 light with Y31H, N33Q
notes: one-arm antibody
B12: GLS3000 H34D one-arm antibody (H chain CE115HA000) (antibody, human IgG1, kappa, L234A L235A, N297A, name in Kabat numbering)
heavy: B1 heavy
chain: B1 chain
light: B1 light with Y31H, H39D
notes: one-arm antibody
B13: GLS3000 N28D one-arm antibody (H chain CE115HA000) (antibody, human IgG1, kappa, L234A L235A, N297A, name in Kabat numbering)
heavy: B1 heavy
chain: B1 chain
light: B1 light with Y31H, N33D
notes: one-arm antibody
B14: GLS3000 L33D one-arm antibody (H chain CE115HA000) (antibody, human IgG1, kappa, L234A L235A, N297A, name in Kabat numbering)
heavy: B1 heavy
chain: B1 chain
light: B1 light with Y31H, L38D
notes: one-arm antibody
B15: GLS3000 N28K one-arm antibody (H chain CE115HA000) (antibody, human IgG1, kappa, L234A L235A, N297A, name in Kabat numbering)
heavy: B1 heavy
chain: B1 chain
light: B1 light with Y31H, N33K
notes: one-arm antibody
B16: GLS3000 L27bM one-arm antibody (H chain CE115HA000) (antibody, human IgG1, kappa, L234A L235A, N297A, name in Kabat numbering)
heavy: B1 heavy
chain: B1 chain
light: B1 light with L29M, Y31H
notes: one-arm antibody
B17: GLS3000 L27bY one-arm antibody (H chain CE115HA000) (antibody, human IgG1, kappa, L234A L235A, N297A, name in Kabat numbering)
heavy: B1 heavy
chain: B1 chain
light: B1 light with L29Y, Y31H
notes: one-arm antibody
B18: GLS3000 L27bE one-arm antibody (H chain CE115HA000) (antibody, human IgG1, kappa, L234A L235A, N297A, name in Kabat numbering)
heavy: B1 heavy
chain: B1 chain
light: B1 light with L29E, Y31H
notes: one-arm antibody
B19: GLS3000 L27bF one-arm antibody (H chain CE115HA000) (antibody, human IgG1, kappa, L234A L235A, N297A, name in Kabat numbering)
heavy: B1 heavy
chain: B1 chain
light: B1 light with L29F, Y31H
notes: one-arm antibody
B20: GLS3000 N28S one-arm antibody (H chain CE115HA000) (antibody, human IgG1, kappa, L234A L235A, N297A, name in Kabat numbering)
heavy: B1 heavy
chain: B1 chain
light: B1 light with Y31H, N33S
notes: one-arm antibody
B21: GLS3000 L27bP one-arm antibody (H chain CE115HA000) (antibody, human IgG1, kappa, L234A L235A, N297A, name in Kabat numbering)
heavy: B1 heavy
chain: B1 chain
light: B1 light with L29P, Y31H
notes: one-arm antibody
B22: GLS3000 N28E one-arm antibody (H chain CE115HA000) (antibody, human IgG1, kappa, L234A L235A, N297A, name in Kabat numbering)
heavy: B1 heavy
chain: B1 chain
light: B1 light with Y31H, N33E
notes: one-arm antibody
B23: GLS3000 N28P one-arm antibody (H chain CE115HA000) (antibody, human IgG1, kappa, L234A L235A, N297A, name in Kabat numbering)
heavy: B1 heavy
chain: B1 chain
light: B1 light with Y31H, N33P
notes: one-arm antibody
B24: GLS3000 L33A one-arm antibody (H chain CE115HA000) (antibody, human IgG1, kappa, L234A L235A, N297A, name in Kabat numbering)
heavy: B1 heavy
chain: B1 chain
light: B1 light with Y31H, L38A
notes: one-arm antibody
B25: GLS3000 N28H one-arm antibody (H chain CE115HA000) (antibody, human IgG1, kappa, L234A L235A, N297A, name in Kabat numbering)
heavy: B1 heavy
chain: B1 chain
light: B1 light with Y31H, N33H
notes: one-arm antibody
B26: GLS3000 L27bD one-arm antibody (H chain CE115HA000) (antibody, human IgG1, kappa, L234A L235A, N297A, name in Kabat numbering)
heavy: B1 heavy
chain: B1 chain
light: B1 light with L29D, Y31H
notes: one-arm antibody
B27: GLS3000 N28V one-arm antibody (H chain CE115HA000) (antibody, human IgG1, kappa, L234A L235A, N297A, name in Kabat numbering)
heavy: B1 heavy
chain: B1 chain
light: B1 light with Y31H, N33V
notes: one-arm antibody
B28: GLS3000 L27bV one-arm antibody (H chain CE115HA000) (antibody, human IgG1, kappa, L234A L235A, N297A, name in Kabat numbering)
heavy: B1 heavy
chain: B1 chain
light: B1 light with L29V, Y31H
notes: one-arm antibody
B29: GLS3000 N28I one-arm antibody (H chain CE115HA000) (antibody, human IgG1, kappa, L234A L235A, N297A, name in Kabat numbering)
heavy: B1 heavy
chain: B1 chain
light: B1 light with Y31H, N33I
notes: one-arm antibody
B30: GLS3000 N28F one-arm antibody (H chain CE115HA000) (antibody, human IgG1, kappa, L234A L235A, N297A, name in Kabat numbering)
heavy: B1 heavy
chain: B1 chain
light: B1 light with Y31H, N33F
notes: one-arm antibody
B31: GLS3000 L27bS one-arm antibody (H chain CE115HA000) (antibody, human IgG1, kappa, L234A L235A, N297A, name in Kabat numbering)
heavy: B1 heavy
chain: B1 chain
light: B1 light with L29S, Y31H
notes: one-arm antibody
B32: GLS3000 N28L one-arm antibody (H chain CE115HA000) (antibody, human IgG1, kappa, L234A L235A, N297A, name in Kabat numbering)
heavy: B1 heavy
chain: B1 chain
light: B1 light with Y31H, N33L
notes: one-arm antibody

target: T1, CD3 epsilon homodimer protein (UniProt P07766 23-126); assay: SPR, CD3e homodimer on chip;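 note: surface plasmon resonance at 25 degrees C, antibodies flowed as analyte over CD3 epsilon homodimer amine-coupled to a CM4 chip, running buffer HBS-EP+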
T1 construct: also called CD3 (CD3 epsilon)
T1 sequence (P07766 23-126): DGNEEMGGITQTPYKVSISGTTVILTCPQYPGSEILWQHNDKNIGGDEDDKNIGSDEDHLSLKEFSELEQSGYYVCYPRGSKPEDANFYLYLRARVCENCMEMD

Row | Binder | ratio of amounts bound (altered form / unaltered GLS3000 antibody)
1 | B1 | 0.64
2 | B2 | 0.25
3 | B3 | 0.39
4 | B4 | 0.26
5 | B5 | 0.46
6 | B6 | 0.23
7 | B7 | 0.22
8 | B8 | 1.19
9 | B9 | 1.06
10 | B10 | 0.45
11 | B11 | 0.37
12 | B12 | 0.22
13 | B13 | 0.19
14 | B14 | 0.17
15 | B15 | 0.44
16 | B16 | 0.71

Row | Binder | ratio of amounts bound (altered form / unaltered GLS3000 antibody)
17 | B17 | 0.25
18 | B18 | 0.17
19 | B19 | 0.42
20 | B20 | 0.32
21 | B21 | 0.91
22 | B22 | 0.4
23 | B23 | 0.36
24 | B24 | 0.85
25 | B25 | 0.42
26 | B26 | 0.17
27 | B27 | 0.36
28 | B28 | 1.12
29 | B29 | 0.44
30 | B30 | 0.46
31 | B31 | 0.71
32 | B32 | 0.39
